Patent EP4810519A2

Experiments:
[1] = target: human CD3 (human) (UniProt P07766); experiment: Biacore; glofitamab formulations F2 and F5 after storage at 40°C, relative to initial
[2] = target: human CD3 (human) (UniProt P07766); experiment: Biacore; glofitamab formulations F1, F3 and F4 after storage at 40°C, relative to initial

Sequence of UniProt P07766 (P07766 23-126): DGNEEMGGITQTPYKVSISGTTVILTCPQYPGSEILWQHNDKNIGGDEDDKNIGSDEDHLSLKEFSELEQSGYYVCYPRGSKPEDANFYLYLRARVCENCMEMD

loss of CD3 binding [1]: < 50%
loss of CD3 binding [2]: 10 to 20%
Substance: glofitamab (bispecific antibody)
